The assay has as its target GST-CDH23Δexon68ΔITEL (residues 847-1075). The experiment in a line: SPR.

B1: harmonin-a Nter domain (residues 1-79) (domain or fragment)
chain: MDRKVAREFRHKVDFLIENDAEKDYLYDVLRMYHQTMDVAVLVGDLKLVINEPNRLPLFDAIRPLIPLKHQVEYDQLTP
For B1, the Kd (in general, the equilibrium constant for the complex coming apart) is greater than 5000 nM.

B2: harmonin-a Nter-PDZ1 fragment (residues 1-203) (domain or fragment)
chain: MDRKVAREFRHKVDFLIENDAEKDYLYDVLRMYHQTMDVAVLVGDLKLVINEPNRLPLFDAIRPLIPLKHQVEYDQLTPRRSRKLKEVRLDRLHPEGLGLSVRGGLEFGCGLFISHLIKGGQADSVGLQVGDEIVRINGYSISSCTHEEVINLIRTKKTVSIKVRHIGLIPVKSSPEESLKWQYVDQFVSESGGVRGGLGSPG
On to B2, for which the Kd turned out to be 58 nM.
